Assay results as given in US20110293511A1, “SPECIFIC BINDING PROTEINS AND USES THEREOF” (priority 2009, published 2011).
Marks after values point to notes of the source that are not given here.

Key:
[1] = test system: Ba/F3 cells expressing the wtEGFR; assay: MTT proliferation assay with EGF; type: cell-based, murine; details: antibody 10 μg/ml
Description: Cells growing in log phase were harvested and washed twice with PBS to remove residual IL-3. […] Proliferation was determined using the MTT assay (van de Loosdrecht et al. (1994) J. Immunol. Methods. 174, 311-320).

[2] = test system: panel of 12 different malignancies; assay: immunohistochemistry of tumor panel; type: binding, human
Description: (§1) Immunohistochemical analysis was performed using […] sections of fresh frozen tissue applied to histology slides and fixed for 10 minutes in cold acetone. Bound primary antibody was detected with biotinylated horse anti-mouse antibody followed by an avidin-biotin-complex reaction. Diaminobenzidine tetrahydrochloride (DAB) was used as chromogen. The extent of the immunohistochemical reactivity in tissues was estimated by light microscopy and graded according to the number of immunoreactive cells in 25% increments as follows:
The extent of de2-7 EGFR in other tumor types was examined using a panel of 12 different malignancies. […] This staining was strongly dependent on antibody concentration used and was considered nonspecific background reactivity.

xenograft A431 = assay: immunohistochemical analysis on xenograft tumors; type: binding, human
Text: The murine fibroblast line NR6ΔEGFR was used as immunogen. Mouse hybridomas were generated by immunizing BALB/c mice five times subcutaneously at 2- to 3-week intervals, with 5×10^5-2×10^6 cells in adjuvant. Complete Freund's adjuvant was used for the first injection. Thereafter, incomplete Freund's adjuvant (Difco™, Voigt Global Distribution, Lawrence, Kans.) was used. Spleen cells from immunized mice were fused with mouse myeloma cell line SP2/0 (Shulman et al. (1978) Nature 276:269-270). Supernatants of newly generated clones were screened in hemadsorption assays for reactivity with cell line NR6, NR6wtEGFR, and NR6ΔEGFR and then analyzed by hemadsorption assays with human glioblastoma cell lines U87MG, U87MGwtEGFR, and U87ΔEGFR. Selected hybridoma supernatants were subsequently tested by western blotting and further analyzed by immunohistochemistry. Newly generated mAbs showing the expected reactivity pattern were purified.
Bound antibody was detected using the Dako Envision+ HRP detection system as per manufacturer's instructions. Sections were finally rinsed with water, counterstained with hematoxylin and mounted.

denaturated sEGFR = molecular target: T1, denaturated sEGFR (Homo sapiens, UniProt P00533); assay: BIAcore with immobilized sEGFR; type: binding
T1 construct: sEGFR is the recombinant extracellular domain (amino acids 1-621) of the wild-type EGFR); host or cells: CHO cells
Description: In a second set of BIAcore experiments, sEGFR was immobilized on a CM microsensor chip at a surface density of ˜4000RU. Serial dilutions of mAbs were tested for reactivity with sEGFR.

[3] = molecular target: T2, sEGFR (recombinant extracellular domain of the wild-type EGFR) (Homo sapiens, UniProt P00533); assay: ELISA on sEGFR coated plates; type: binding
T2 construct: sEGFR is the recombinant extracellular domain (amino acids 1-621) of the wild-type EGFR); host or cells: CHO cells
Description: Two types of ELISA were used to determine the specificity of the antibodies. […] Growth Factors. 18, 11-29). Antibodies were added to wells in triplicate at increasing concentration in 2% HSA in phosphate-buffered saline (PBS).

[4] = test system: glioblastomas not preselected for EGFR status; assay: immunohistochemistry of 46 unselected glioblastomas; type: binding, human
Description: as §1
The 528 antibody was strongly and homogeneously positive in all samples except two (Nos. 27 and 29) (44/46, 95.7%).

wtEGFR on A431 cells = molecular target: T3, wtEGFR on A431 cells (Homo sapiens, UniProt P00533); assay: Scatchard analysis on A431 cells; type: binding
T3 construct: endogenous in cells; host or cells: A431 human squamous carcinoma cells

[5] = test system: U87MG.wtEGFR brain xenografts; assay: intracranial glioma xenograft treatment; type: in vivo, nude mice; details: i.p. day 0 through 14

B1: mAb806: murine IgG2b monoclonal antibody, clone 806, ATCC PTA-3858; VH SEQ ID NO:2, VL SEQ ID NO:4 (antibody, listed as Mus musculus, V domains shown)
VH: MRVLILLWLFTAFPGVLSDVQLQESGPSLVKPSQSLSLTCTVTGYSITSDFAWNWIRQFPGNKLEWMGYISYSGNTRYNPSLKSRISITRDTSKNQFFLQLNSVTIEDTATYYCVTAGRGFPYWGQGTLVTVSA
VL: MVSTAQFLAFLLLWFPGARCDILMTQSPSSMSVSLGDTVSITCHSSQDINSNIGWLQQRPGKSFKGLIYHGTNLDDEVPSRFSGSGSGADYSLTISSLESEDFADYYCVQYAQFPWTFGGGTKLEIKR
effect on EGF-induced proliferation [1]: no effect | positive tumors / tumors tested ([2]; Colonic carcinoma): 0/10 | positive tumors / tumors tested ([2]; Head + neck cancer (sqcc)): 7/11 | positive tumors / tumors tested ([2]; Leiomyosarcoma): 0/5 | positive tumors / tumors tested ([2]; Liposarcoma): 0/5* | positive tumors / tumors tested ([2]; Lung (sqcc, adeno, neuroend)): 6/12 | positive tumors / tumors tested ([2]; Malignant melanoma metastases): 0/10 | positive tumors / tumors tested ([2]; Mammary gland): 1/10 | positive tumors / tumors tested ([2]; Mfh Malignant fibrous histiocytoma): 0/5* | positive tumors / tumors tested ([2]; Ovary (serous-papillary)): 0/5 | positive tumors / tumors tested ([2]; Seminoma): 0/10 | positive tumors / tumors tested ([2]; Synovial sarcoma): 0/5* | positive tumors / tumors tested ([2]; Urinary bladder (tcc, sqcc, adeno)): 3/10* | tumors with positive staining ([2]; head and neck tumors): 64% | tumors with positive staining ([2]; lung carcinomas): 50% | tumors with positive staining ([2]; urinary tumors): 30% | Immunohistochemical staining (xenograft A431): pos. (predominantly basal | reactivity with denaturated sEGFR (denaturated sEGFR): strongly reactive | inhibition of binding to immobilized sEGFR by sEGFR in solution ([3]; ELISA): unable to inhibit | binding to immobilized wild-type sEGFR ([3]; ELISA, up to 10 μg/ml): dose-dependent and saturating binding curves | inhibition of binding to immobilized sEGFR by denatured sEGFR in solution ([3]; sEGFR heated 10 min at 95° C.): able to inhibit | Immunoreactivity ([4]; glioblastoma #1, EGFR Amp. A, 5′ MUT): ++++ (++++=>75%) | Immunoreactivity ([4]; glioblastoma #2, EGFR Amp. N, WT): ++++ (++++=>75%) | Immunoreactivity ([4]; glioblastoma #3, EGFR Amp. N, A2): ++++ (++++=>75%) | Immunoreactivity ([4]; glioblastoma #4, EGFR Amp. N, WT): ++++ (++++=>75%) | Immunoreactivity ([4]; glioblastoma #5, EGFR Amp. N, 5′ MUT): ++++ (++++=>75%) | Immunoreactivity ([4]; glioblastoma #6, EGFR Amp. A, WT): ++++ (++++=>75%) | Immunoreactivity ([4]; glioblastoma #7, EGFR Amp. N, 5′ MUT): ++++ (++++=>75%) | Immunoreactivity ([4]; glioblastoma #8, EGFR Amp. A, 5′ MUT): ++++ (++++=>75%) | Immunoreactivity ([4]; glioblastoma #9, EGFR Amp. A, WT): ++++ (++++=>75%) | Immunoreactivity ([4]; glioblastoma #10, EGFR Amp. N, WT): neg. | Immunoreactivity ([4]; glioblastoma #11, EGFR Amp. A, 5′ MUT): ++ (++=25-50%) | Immunoreactivity ([4]; glioblastoma #12, EGFR Amp. A, 5′ MUT): ++ (++=25-50%) | Immunoreactivity ([4]; glioblastoma #13, EGFR Amp. N, WT): ++++ (++++=>75%) | Immunoreactivity ([4]; glioblastoma #14, EGFR Amp. Nd, nd): neg. | Immunoreactivity ([4]; glioblastoma #15, EGFR Amp. N, WT): ++ (++=25-50%) | Immunoreactivity ([4]; glioblastoma #16, EGFR Amp. N, nd): neg. | Immunoreactivity ([4]; glioblastoma #17, EGFR Amp. N, WT): neg. | Immunoreactivity ([4]; glioblastoma #18, EGFR Amp. A, 5′ MUT): ++++ (++++=>75%) | Immunoreactivity ([4]; glioblastoma #19, EGFR Amp. N, WT): ++++ (++++=>75%) | Immunoreactivity ([4]; glioblastoma #20, EGFR Amp. N, WT): neg. | Immunoreactivity ([4]; glioblastoma #21, EGFR Amp. N, WT): ++++ (++++=>75%) | Immunoreactivity ([4]; glioblastoma #22, EGFR Amp. N, WT): neg. | Immunoreactivity ([4]; glioblastoma #23, EGFR Amp. N, 5′ MUT): ++++ (++++=>75%) | Immunoreactivity ([4]; glioblastoma #24, EGFR Amp. A, WT): ++++ (++++=>75%) | Immunoreactivity ([4]; glioblastoma #25, EGFR Amp. N, WT): neg. | Immunoreactivity ([4]; glioblastoma #26, EGFR Amp. A, 5′ MUT): ++++ (++++=>75%) | Immunoreactivity ([4]; glioblastoma #27, EGFR Amp. N, WT): neg. | Immunoreactivity ([4]; glioblastoma #28, EGFR Amp. N, WT): neg. | Immunoreactivity ([4]; glioblastoma #29, EGFR Amp. N, WT): neg. | Immunoreactivity ([4]; glioblastoma #30, EGFR Amp. N, WT): ++++ (++++=>75%) | Immunoreactivity ([4]; glioblastoma #31, EGFR Amp. N, nd): neg. | Immunoreactivity ([4]; glioblastoma #32, EGFR Amp. N, 5′ MUT): +++ (+++=50-75%) | Immunoreactivity ([4]; glioblastoma #33, EGFR Amp. A, 5′ MUT): ++++ (++++=>75%) | Immunoreactivity ([4]; glioblastoma #34, EGFR Amp. N, WT): +++ (+++=50-75%) | Immunoreactivity ([4]; glioblastoma #35, EGFR Amp. A, 5′ MUT): neg. | Immunoreactivity ([4]; glioblastoma #36, EGFR Amp. A, 5′ MUT): ++ (++=25-50%) | Immunoreactivity ([4]; glioblastoma #37, EGFR Amp. A, 5′ MUT): + (+=5-25%) | Immunoreactivity ([4]; glioblastoma #38, EGFR Amp. N, WT): neg. | Immunoreactivity ([4]; glioblastoma #39, EGFR Amp. N, 5′ MUT): neg. | Immunoreactivity ([4]; glioblastoma #40, EGFR Amp. A, WT): ++++ (++++=>75%) | Immunoreactivity ([4]; glioblastoma #41, EGFR Amp. N, WT): neg. | Immunoreactivity ([4]; glioblastoma #42, EGFR Amp. A, WT): ++++ (++++=>75%) | Immunoreactivity ([4]; glioblastoma #43, EGFR Amp. nd, nd): neg. | Immunoreactivity ([4]; glioblastoma #44, EGFR Amp. N, WT): neg. | Immunoreactivity ([4]; glioblastoma #45, EGFR Amp. N, WT): neg. | Immunoreactivity ([4]; glioblastoma #46, EGFR Amp. N, nd): neg. | positive cases / glioblastomas ([4]; panel of 46): 27/46 | receptors (binding sites) per cell (wtEGFR on A431 cells; A431 cells): 2.3×10^5 | affinity for the wtEGFR on A431 cells (wtEGFR on A431 cells; Scatchard, average of three experiments): 9.5e+07 M⁻¹ | median survival [5]: 23 days
